Experimental data from the supplement of paper PMC7125110.
± gives the standard error. This sample holds only a part of the variants without activity.

B1: glmS ribozyme (parent)
chain: AUAAAAGCGCCAGAACUACAGAAAUGUAGUUGACGAGGAGGAGGUUUAUCGAAUUUUCGGCGGAUGCCUCCAAA

What was measured:
Details in all cases: with glucosamine-6-phosphate
[1] = variants of: B1; test: self-cleavage kobs at 40 uM GlcN6P; higher = faster cleavage; RNA array
Procedure, shortened: (§1)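 Tiles bearing barcoded ribozyme variants, transcribed in situ by E. coli RNA polymerase on sequenced MiSeq chips, were imaged over ~14 h at 37 °C using a hybridised Cy3 probe. Glucosamine-6-phosphate was supplied at 40 μM to 10 mM in HEPES/KCl/Mg(OAc)2 buffer. kobs came from one- or two-exponential decay fits to normalised per-tile medians, and weighted Michaelis–Menten fits then provided kcat and KM.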

[2] = variants of: B1; test: self-cleavage kobs at 2500 uM GlcN6P; higher = faster cleavage; RNA array
Procedure, shortened: as §1

[3] = variants of: B1; test: self-cleavage kobs at 640 uM GlcN6P; higher = faster cleavage; RNA array
Procedure, shortened: as §1

[4] = variants of: B1; test: self-cleavage kobs at 10000 uM GlcN6P; higher = faster cleavage; RNA array
Procedure, shortened: as §1

[5] = variants of: B1; test: self-cleavage kobs at 160 uM GlcN6P; higher = faster cleavage; RNA array
Procedure, shortened: as §1

| Variant | self-cleavage kobs at 40 uM GlcN6P [1] [s⁻¹] | self-cleavage kobs at 2500 uM GlcN6P [2] [s⁻¹] | self-cleavage kobs at 640 uM GlcN6P [3] [s⁻¹] | self-cleavage kobs at 10000 uM GlcN6P [4] [s⁻¹] | self-cleavage kobs at 160 uM GlcN6P [5] [s⁻¹] |
| --- | --- | --- | --- | --- | --- |
| C10G G43U U65A | < 1e-05 | < 1e-05 |  |  |  |
| G41A U69A | < 1e-05 |  | < 1e-05 |  |  |
| C10A C50G G63C | 0.000128 ± 3.3e-05 | 7.48e-05 ± 2.8e-05 |  | 4.91e-05 ± 1.8e-05 |  |
| C11G G62C A64G C68G | < 1e-05 |  |  | < 1e-05 |  |
| A15G G44U G51C A52G U56G | < 1e-05 |  | < 1e-05 |  | < 1e-05 |
| G63C | < 1e-05 | < 1e-05 | < 1e-05 | < 1e-05 | < 1e-05 |
| G37C G41U | < 1e-05 | < 1e-05 | < 1e-05 | < 1e-05 | < 1e-05 |
| G9A C58G | < 1e-05 | < 1e-05 | < 1e-05 |  | < 1e-05 |
| G43U G59A | < 1e-05 | < 1e-05 |  | < 1e-05 |  |
| A12U U30G U56G | 0.000609 ± 0.00013 |  |  | 0.0339 ± 0.0098 |  |
| G7U A53G U69G | 8.14e-05 ± 2.1e-05 | 9.39e-05 ± 3.9e-05 | 0.000822 ± 0.00023 | 9.89e-05 ± 2e-05 |  |
| A5U G40C | 0.000123 ± 2.6e-05 | 0.000574 ± 0.00021 |  |  |  |
| A48C C50U | < 1e-05 | < 1e-05 | < 1e-05 | < 1e-05 | < 1e-05 |
| C10U G29A U47G | < 1e-05 |  |  |  |  |
| G9A C10G G13U A48U G51U G66C | < 1e-05 |  |  |  |  |
| A6U G29A G63U | < 1e-05 |  |  |  |  |
| A36G A39U A48U C70G | < 1e-05 | < 1e-05 | < 1e-05 | < 1e-05 | < 1e-05 |
| A14G C34U C68G | 0.000349 ± 0.00016 |  |  | 5.07e-05 ± 2e-05 |  |
| A36C A52U | < 1e-05 |  |  | < 1e-05 |  |
| G40U C50A G66U | < 1e-05 | < 1e-05 | < 1e-05 | < 1e-05 |  |
| C10A C11U U69G | 4.43e-05 ± 2.1e-05 |  |  | 5.88e-05 ± 1.5e-05 |  |
| A12C A14G A53U C67G | 9.17e-05 ± 2.3e-05 |  |  | 0.00219 ± 0.00062 |  |
| A12C G29A G35C A52U U54A G60U C67G | < 1e-05 |  |  |  |  |
| A12U A53G | 0.00255 ± 0.00025 |  | 0.0163 ± 0.0025 | 0.125 ± 0.023 | 0.00496 ± 0.00086 |

| Variant | self-cleavage kobs at 40 uM GlcN6P [1] [s⁻¹] | self-cleavage kobs at 2500 uM GlcN6P [2] [s⁻¹] | self-cleavage kobs at 640 uM GlcN6P [3] [s⁻¹] | self-cleavage kobs at 10000 uM GlcN6P [4] [s⁻¹] | self-cleavage kobs at 160 uM GlcN6P [5] [s⁻¹] |
| --- | --- | --- | --- | --- | --- |
| G7A C11G U69A | 0.000101 ± 2.8e-05 |  |  |  |  |
| U49A U57G | < 1e-05 |  | < 1e-05 |  |  |
| A12U U49A | < 1e-05 |  |  |  | < 1e-05 |
| G32A C34U C50U C61A G66A | 4.94e-05 ± 2.4e-05 |  |  |  |  |
| G60A A64U | < 1e-05 | < 1e-05 | < 1e-05 |  |  |
| A12C C34G | < 1e-05 |  |  | < 1e-05 | < 1e-05 |
| U45A G59U C70G | < 1e-05 |  |  | < 1e-05 |  |
| G40A U69A | < 1e-05 | < 1e-05 | < 1e-05 | < 1e-05 |  |
| U31G U47C | 2.84e-05 ± 1.3e-05 | 0.000501 ± 0.00015 | 0.000197 ± 4.8e-05 |  |  |
| A6G G7C | < 1e-05 | < 1e-05 |  | < 1e-05 | < 1e-05 |
| A15G C50A A64G | < 1e-05 |  |  |  |  |
| A6C C67G | < 1e-05 |  |  |  |  |
| G35C U56C | < 1e-05 | < 1e-05 | < 1e-05 | < 1e-05 | < 1e-05 |
| U30A U49C | < 1e-05 | < 1e-05 | < 1e-05 | < 1e-05 | < 1e-05 |
| G7A A12C A42C U49A G60C | < 1e-05 |  |  | < 1e-05 |  |
| A6G G62C | < 1e-05 | < 1e-05 | < 1e-05 | < 1e-05 | < 1e-05 |
| G35C U46G A48G U65C C68A | < 1e-05 |  |  |  |  |
| G9C G43A | < 1e-05 |  |  | < 1e-05 |  |
| G38U A42C | < 1e-05 |  |  | < 1e-05 | < 1e-05 |
| G7U C10G A15U C34A G40U C58G G60C G63A | < 1e-05 |  | < 1e-05 | < 1e-05 |  |
| G7A A12U A33C C58A A64G | < 1e-05 |  |  | < 1e-05 |  |
| C11A G41U | < 1e-05 | < 1e-05 | < 1e-05 |  | < 1e-05 |
| C11A G40A | < 1e-05 |  |  | 3.6e-05 ± 1.4e-05 | < 1e-05 |
| C10G G43A A48G U54G C58A A64U | < 1e-05 | < 1e-05 | < 1e-05 | < 1e-05 |  |

| Variant | self-cleavage kobs at 40 uM GlcN6P [1] [s⁻¹] | self-cleavage kobs at 2500 uM GlcN6P [2] [s⁻¹] | self-cleavage kobs at 640 uM GlcN6P [3] [s⁻¹] | self-cleavage kobs at 10000 uM GlcN6P [4] [s⁻¹] | self-cleavage kobs at 160 uM GlcN6P [5] [s⁻¹] |
| --- | --- | --- | --- | --- | --- |
| C8G U55C | < 1e-05 |  | < 1e-05 |  | < 1e-05 |
| G60C U69C | < 1e-05 |  |  | < 1e-05 |  |
| C34A C70U | < 1e-05 |  |  |  | < 1e-05 |
| U30G G43C | < 1e-05 | < 1e-05 |  | < 1e-05 |  |
| G32C U49C | < 1e-05 |  |  |  | < 1e-05 |
| A42C U54A | < 1e-05 | < 1e-05 | < 1e-05 |  | < 1e-05 |
| A6G A48U G66U U69C | < 1e-05 |  |  | < 1e-05 |  |
| G37U C71U | < 1e-05 |  | < 1e-05 |  |  |
| A42U C61U | < 1e-05 | < 1e-05 | < 1e-05 | < 1e-05 | < 1e-05 |
| G29C U30G U31A C50U | < 1e-05 |  | < 1e-05 |  |  |
| C10U A12G G13C | < 1e-05 |  |  | < 1e-05 |  |
| U30A U49A G62U | < 1e-05 |  |  |  |  |
| C8U G59A | < 1e-05 |  | < 1e-05 | < 1e-05 | < 1e-05 |
| C8A A15C | < 1e-05 | < 1e-05 | < 1e-05 |  | < 1e-05 |
| A42U G51A | < 1e-05 |  | < 1e-05 |  |  |
| U2C C11U G40A U45G | < 1e-05 |  |  |  |  |
| C11U U46A | < 1e-05 | 4.03e-05 ± 1.7e-05 |  | 9.01e-05 ± 1.7e-05 | < 1e-05 |
| G44U U45C G63A | < 1e-05 |  |  |  |  |
| G13C G51A | < 1e-05 | < 1e-05 |  | < 1e-05 |  |
| C8A C50U G51C A53C U65A | < 1e-05 |  | < 1e-05 |  |  |
| A12U C68U | 0.000326 ± 3.4e-05 | 0.0112 ± 0.002 | 0.00195 ± 0.00021 | 0.00957 ± 0.0013 | 0.000964 ± 9.8e-05 |
| A15G G29U U56G G63A | < 1e-05 |  |  |  |  |
| C34G A64C U65A | < 1e-05 |  |  |  |  |
| C16A G44C | < 1e-05 |  | < 1e-05 | < 1e-05 | < 1e-05 |

| Variant | self-cleavage kobs at 40 uM GlcN6P [1] [s⁻¹] | self-cleavage kobs at 2500 uM GlcN6P [2] [s⁻¹] | self-cleavage kobs at 640 uM GlcN6P [3] [s⁻¹] | self-cleavage kobs at 10000 uM GlcN6P [4] [s⁻¹] | self-cleavage kobs at 160 uM GlcN6P [5] [s⁻¹] |
| --- | --- | --- | --- | --- | --- |
| G38U U46A | < 1e-05 | < 1e-05 |  |  | < 1e-05 |
| C10A G37C G38A A64U U65C | < 1e-05 | < 1e-05 |  |  |  |
| A48U C50U C58A | < 1e-05 |  | < 1e-05 |  | < 1e-05 |
| U30C G38C | < 1e-05 | < 1e-05 | < 1e-05 |  |  |
| A39G G40C C67U | < 1e-05 | < 1e-05 |  | < 1e-05 |  |
| C34A G37C A48C | < 1e-05 |  |  | < 1e-05 |  |
| G7C C34G | < 1e-05 | < 1e-05 | < 1e-05 | < 1e-05 | < 1e-05 |
| A12G C50A | < 1e-05 |  |  | < 1e-05 |  |
| U30G A52C | < 1e-05 | < 1e-05 | < 1e-05 |  | < 1e-05 |
| G7A U56C C67U C68U | < 1e-05 |  | < 1e-05 |  | < 1e-05 |
| A15C A36C C71U | < 1e-05 |  |  | < 1e-05 |  |
| U47C A53G | 0.000125 ± 2.2e-05 | 0.00477 ± 0.0011 | 0.00114 ± 0.00018 | 0.00419 ± 0.00092 | 0.000176 ± 5.7e-05 |
| C10G A12U U30G | < 1e-05 |  |  |  |  |
| C8U C16U U46A G63A | < 1e-05 |  |  | < 1e-05 |  |
| A14G C68U | 0.000235 ± 1.9e-05 | 0.00412 ± 0.00051 | 0.00222 ± 0.00018 | 0.0159 ± 0.0026 | 0.000503 ± 6.4e-05 |
| G44U A48G | < 1e-05 | < 1e-05 | < 1e-05 | < 1e-05 | < 1e-05 |
| C11A G51U A52G U57A G66C C70A | 5.04e-05 ± 1.9e-05 |  |  | 5e-05 ± 1.4e-05 |  |
| C8A U31A | < 1e-05 |  |  |  |  |
| C16A A42U | < 1e-05 |  |  |  | < 1e-05 |
| C10U G32U A64C | < 1e-05 |  |  | < 1e-05 |  |
| U30G A48C C70G | < 1e-05 |  |  |  |  |
| C16A G37U G38A U45A U55G | < 1e-05 |  |  | < 1e-05 |  |
